Assay results taken from publication PMC4728125, “Molecular basis for allosteric specificity regulation in class Ia ribonucleotide reductase from Escherichia coli” (eLife, 2016).

Legend:
[1] = target: ribonucleotide reductase β2 (Escherichia coli) (UniProt P69924); conditions: cited from earlier work
[2] = target: the molecule itself; assay: crystal structure; α4β4 crystal form; 25 μM α2 and 50 μM met-β2 in 50 mM HEPES, 15 mM MgCl2, 1 mM EDTA, pH 7.6, with 10 mM dATP and 5 mM DTT; hanging drop, ~25°C; crystals soaked with CDP/dATP, UDP/dATP, ADP/dGTP or GDP/TTP; four structures at 2.97-3.40 Å

ribonucleotide reductase β2 (Escherichia coli), sequence (P69924 2-376): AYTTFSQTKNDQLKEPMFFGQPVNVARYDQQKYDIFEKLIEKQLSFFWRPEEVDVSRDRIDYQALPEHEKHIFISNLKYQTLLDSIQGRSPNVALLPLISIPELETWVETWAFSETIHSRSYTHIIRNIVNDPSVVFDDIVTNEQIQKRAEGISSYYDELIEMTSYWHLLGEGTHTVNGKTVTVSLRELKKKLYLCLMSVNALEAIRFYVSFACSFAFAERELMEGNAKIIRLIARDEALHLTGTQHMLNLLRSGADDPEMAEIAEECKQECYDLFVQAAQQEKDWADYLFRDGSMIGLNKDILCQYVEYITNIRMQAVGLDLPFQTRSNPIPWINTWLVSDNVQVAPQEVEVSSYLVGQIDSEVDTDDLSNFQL

For “ribonucleotide reductase α2 (from UniProt P00452)”, the Kd [1] is given as 0.4 µM.

B1: Escherichia coli class Ia ribonucleotide reductase catalytic subunit α2 (enzyme, E. coli, UniProt P00452 1-761, looked up)
chain: MNQNLLVTKRDGSTERINLDKIHRVLDWAAEGLHNVSISQVELRSHIQFYDGIKTSDIHETIIKAAADLISRDAPDYQYLAARLAIFHLRKKAYGQFEPPALYDHVVKMVEMGKYDNHLLEDYTEEEFKQMDTFIDHDRDMTFSYAAVKQLEGKYLVQNRVTGEIYESAQFLYILVAACLFSNYPRETRLQYVKRFYDAVSTFKISLPTPIMSGVRTPTRQFSSCVLIECGDSLDSINATSSAIVKYVSQRAGIGINAGRIRALGSPIRGGEAFHTGCIPFYKHFQTAVKSCSQGGVRGGAATLFYPMWHLEVESLLVLKNNRGVEGNRVRHMDYGVQINKLMYTRLLKGEDITLFSPSDVPGLYDAFFADQEEFERLYTKYEKDDSIRKQRVKAVELFSLMMQERASTGRIYIQNVDHCNTHSPFDPAIAPVRQSNLCLEIALPTKPLNDVNDENGEIALCTLSAFNLGAINNLDELEELAILAVRALDALLDYQDYPIPAAKRGAMGRRTLGIGVINFAYYLAKHGKRYSDGSANNLTHKTFEAIQYYLLKASNELAKEQGACPWFNETTYAKGILPIDTYKKDLDTIANEPLHYDWEALRESIKTHGLRNSTLSALMPSETSSQISNATNGIEPPRGYVSIKASKDGILRQVVPDYEHLHDAYELLWEMPGNDGYLQLVGIMQKFIDQSISANTNYDPSRFPSGKVPMQQLLKDLLTAYKFGVKTLYYQNTRDGAEDAQDDLVPSIQDDGCESGACKI
notes: Ribonucleotide reductase class Ia α subunit (NrdA, protein R1), E. coli; residues about 4-737 modelled; 172-kDa homodimer; no tag is named for this preparation; The His6-tagged α2 was used only in the activity assays; also called α subunit; RNR α; source: prepared as described (Salowe et al., 1987; Salowe and Stubbe, 1986), purified
B1: binds [2].
